# Test results taken from patent US11517583B2, “Trans-splicing RNA (tsRNA)” (NATIONAL UNIVERSITY OF SINGAPORE, priority 2016, dated 2022).
# Tests used:
# [1] = tested on: AFP pre-mRNA (AFP_E3-E6 mini-gene); assay: real-time RT-PCR (TaqMan) quantification of trans-splicing towards over-expressed AFP mini-gene in HepG2 cells; format: cell-based, human; settings: 3′ER, HepG2 co-transfected with AFP mini-gene vector, 24 hours post transfection
# Procedure: Transfection of plasmid DNAs: HepG2 cells were transfected at ˜70-90% confluency in a 6-well plate for Western blotting, 12-well for FACS analyses and 24-well plate for all other analyses using either Lipofectamine 3000 (for FACS studies only) or Lipofectamine 2000, (Life Technologies) according to manufacturer's protocol. A total of 1 μg DNA was co-transfected or transfected in a 24-well plate format (500 ng:500 ng of ts construct: AFP_E3_E6 minigene) in over-expression studies and 1 μg of ts constructs only in endogenous studies. For 12-well and 6-well formats, the amount of total DNA was scaled up to 2 μg and 4 μg respectively. For FACS experiments, either 500 ng of pEGFP-C2 plasmid was co-transfected along with the ts and AFP mini-gene vectors to perform experiments with some 3′ER and 5′ER plasmids and dumbbells, or the GFP infused ts vectors were used along with/without AFP mini-gene for over-expression and endogenous studies respectively.
# Total RNA Isolation: RNA was isolated 24 hours post-transfection using RNeasy plus kit (Qiagen) following the manufacturer's protocol. RNA concentrations were measured using NanoDrop 2000.
# cDNA conversion and real-time RT-PCR: 500 ng RNA from all samples was converted into cDNA using the First Strand SuperScript RTIII (Invitrogen) kit with 200 ng of random hexamers and 10 uM of dNTPs. The reaction conditions were 25° C. for 5 min, followed by 50° C. for 2 h and enzyme inactivation at 70° C. for 15 min. 20 ng of cDNA was used as template for real time RT-PCR. TaqMan quantification was performed in ABI 7900HT of the cDNAs by designing specific probe and primer sets for each cis- and trans-splicing detection. One set of probes were designed in the AFP regions; namely AFP probe exon 5 and AFP probe exon 4 to detect 3′ER and 5′ER cis and trans-splicing respectively. Primers to detect 3′ER cis-splicing along with AFP probe were FP afp exon 5 (set1) and RP afp exon 6 and for 3′ER trans-splicing were FP afp exon 5 (set1) and RP HSVtk. Primers to detect 5′ER cis-splicing along with AFP probe were FP afp exon 3 and RP afp exon 4 (set1) and for 5′ER trans-splicing were FP HSVtk (set1) and RP afp exon 4 (set1). Another set of probes were designed in the distal HSVtk region to detect 3′ER, named HSVtk probe for 3′ER and proximal HSVtk region to detect 5′ER, named HSVtk probe for 5′ER trans-splicing alone. The primers to detect 3′ER trans-splicing along with HSVtk probes were FP afp exon 5 (set2) and RP HSVtk. Primers to detect 5′ER trans-splicing along with HSVtk probes were FP HSVtk (set2) and RP afp exon 4 (set2). The number of cycles in over-expression studies and endogenous studies were 40 and 50 respectively. RT-PCR: Reverse transcription PCR was performed on the cDNA samples using Taq DNA polymerase (Fermentas) with […] of two-step PCR (30+30 cycles or 35+35 cycles) to detect 3′ and 5′ cis and trans-splicing and the bands were visualized on a 1% agarose gel. The primers used to detect 3′ER cis-splicing and mock were FP afp exon 5 (set1) and RP afp exon 6, to detect 3′ER trans-splicing were FP afp exon 5 (set1) and RP HSVtk. To detect 5′ER cis-splicing and mock were primers FP afp exon 3 and RP afp exon 4 (set1), to detect 5′ER trans-splicing were primers FP HSVtk (set1) and RP afp exon 4 (set1). […]
# [2] = tested on: HHRz cleavage motif at tsRNA 3′ end; assay: stem-loop primer based rt-RT-PCR of hammerhead ribozyme (HHRz) cleavage; format: cell-based
# Text: FIG. 3 Improved stability at 3′ end of the RNA improves 5′ trans-splicing in correlation with cleavage of hammerhead ribozyme. […] 145. The conserved motifs of stem Ia, Ib and II are highlighted in boxes and stem Ill is designed as a perfect complement to the 3′ end of the ΔBD to make the HH Rz structure. Cleavage motif GUC is shown with a scissor icon. […] R2, correlation coefficient. n=3, linear regression analysis.
# That was surprising as the uncleaved RNA comprises a polyA tail and is expected to be exported to the cytoplasm thereby lowering its nuclear concentration and the rate of trans-splicing. We investigated HHRz cleavage by quantifying the cleaved RNA 3′ end using stem-loop primer based rt-RT-PCR (FIG. 3a). This method was proven to efficiently discriminate between perfect primer-matching and extended RNA 3′ ends. The observed 6.2 cycle difference indicated a ribozyme cleavage rate above 90% yielding trans-splicing RNA with an unstructured 3′ terminal BD (FIG. 3a). Unstructured ends of antisense RNA have been reported to be associated with both fast target binding and degradation. […]
Molecule,more potent (trans-splicing) than 3ER_BD-struc1 [1] [fold],stronger trans-splicing compared with 3ER_ΔBD-opt-inv [1] [fold],more potent (trans-splicing) than 3ER_BD-struc2 ([1]; p=0.04) [fold],stronger trans-splicing compared with 3ER_BD-opt ([1]; p=0.04) [fold],stronger trans-splicing compared with 3ER_BD-opt-inv ([1]; p=0.04) [fold],ribozyme cleavage rate ([2]; indicated by the cycle difference),"cycle difference, cleaved RNA 3′ end (active versus inactive HHRz motif) ([2]; stem-loop primer rt-RT-PCR) [cycle]"
"3ER_ΔBD-opt: parental 3′ exon replacement tsRNA construct; unstructured 50 base BD to AFP intron 5 with two mismatches, HSVtk (nucleic acid) DNA: GCTAGCACCTCTCTAAACCTAAATTAAATTTTCTTCTCTAAACCTCTTTCCTAGTTGGACTGACGTCACTCAGTCCTCCTCCTCAGC",4,3,6,4,30,,
"p5ER_ΔBD-opt_HH: parental 5′ exon replacement tsRNA construct; unstructured mismatched BD to AFP intron 3, HSVtk, active hammerhead ribozyme (nucleic acid) DNA: GGTACCCCTCCTTCCTCCTCCTCCTCCTCCTCCTCCTATATACATATACACACACACACACACTCATACCACATTTCAGACATAAAT",,,,,,above 90%,6.2
